# Reference: patent publication US20240033291A1
# B1: MSLN3 phage clone (scFv displayed on phage, KBIO human synthetic scFv phage display library KscFv-I) (scFv, V domains shown, not shown: small tags and cut ends; large carriers)
# VH: EVQLVESGGGLVQPGGSLRLSCAASGFTFSDYAMSWVRQAPGKGLEWVSAISSSGGTTYYADSVKGRFTISRDNSKNTLYLQMNSLRAEDTAVYYCAKEEEGEWREYFDVWGQGTLVTVSS
# VL: DIQMTQSPSSLSASVGDRVTITCRASQSISSYLNWYQQKPGKAPKLLIYATSTLQSGVPSRFSGSGSGTDFTLTISSLQPEDFATYYCQQSYTFPYTFGQGTKVEIK
# Assays:
# [1] = target: mesothelin on the cell membrane of the pancreatic cancer cell line AsPC-1 (mesothelin-overexpressing cell line) (human) (UniProt Q13421); assay: flow cytometry, phage on AsPC-1 cells, anti-M13-FITC
# [2] = target: mesothelin on the cell membrane of the pancreatic cancer cell line AsPC-1 (mesothelin-overexpressing cell line) (human) (UniProt Q13421); assay: flow cytometry, phage on AsPC-1 cells against K562 control cells, anti-M13-FITC
binder,measurement,setting,value
B1,relative peak shift value,[1],> 3%
same,relative peak shift value,[2],23.8%
